Consider two substances from paper PMC9600979.

Assay [1] concerns the target HSV-1 gH-Lg expressed without gL (herpes simplex virus 1 (strain KOS)) (UniProt P06477). The experiment in a line: split reporter (BiFC, NanoBiT); as the NanoBiT assay in live CHO cells, but in the absence of HSV-1 gL (gH stays in the ER).
In assay [2] the target is gH-Lg TMDEBV-CTSCR / HSV-1 gL (herpes simplex virus 1 (strain KOS) | Epstein-Barr virus) (UniProt P10185). Description: split reporter (BiFC, NanoBiT); live CHO effector cells transfected with the two BiT-tagged partners and the remaining HSV-1 proteins required for fusion; Endurazine substrate; luminescence every 2 min at 37°C for 1 h before and 7.5 or 8 h after adding target CHO cells with or without nectin-1; quantified as area under the curve.

The target in assay [3] is gH-Lg CTSCR / HSV-1 gL (herpes simplex virus 1 (strain KOS)) (UniProt P10185). Described as above.
Assay [4] has as its target gH-Lg TMDEBV / HSV-1 gL (herpes simplex virus 1 (strain KOS) | Epstein-Barr virus) (UniProt P10185). The description is as above.

Chain of UniProt P06477 (P06477 19-838): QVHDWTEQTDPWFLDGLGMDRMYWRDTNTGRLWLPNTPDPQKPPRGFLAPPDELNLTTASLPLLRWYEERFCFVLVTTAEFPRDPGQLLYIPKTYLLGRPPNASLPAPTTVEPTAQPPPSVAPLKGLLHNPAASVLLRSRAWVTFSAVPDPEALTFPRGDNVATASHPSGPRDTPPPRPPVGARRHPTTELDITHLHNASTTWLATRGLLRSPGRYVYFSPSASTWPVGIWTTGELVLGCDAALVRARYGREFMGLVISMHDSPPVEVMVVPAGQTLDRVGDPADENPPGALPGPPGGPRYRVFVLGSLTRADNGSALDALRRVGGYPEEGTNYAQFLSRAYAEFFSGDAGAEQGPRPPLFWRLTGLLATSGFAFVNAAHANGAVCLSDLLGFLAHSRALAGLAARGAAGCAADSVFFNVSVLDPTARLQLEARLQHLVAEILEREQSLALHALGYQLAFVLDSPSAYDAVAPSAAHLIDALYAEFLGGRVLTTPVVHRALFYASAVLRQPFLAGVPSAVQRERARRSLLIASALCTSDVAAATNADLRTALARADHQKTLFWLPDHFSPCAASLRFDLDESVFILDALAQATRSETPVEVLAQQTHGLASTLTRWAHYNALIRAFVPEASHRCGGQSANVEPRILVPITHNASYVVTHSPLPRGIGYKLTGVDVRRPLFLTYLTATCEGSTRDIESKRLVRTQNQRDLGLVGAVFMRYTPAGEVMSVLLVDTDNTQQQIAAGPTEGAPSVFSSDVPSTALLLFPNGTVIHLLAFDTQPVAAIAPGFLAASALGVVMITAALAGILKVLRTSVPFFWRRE

“HSV-1 gD-Sm (from UniProt Q69091 26-394) (natural protein)”: the fold reduction in the absence of gL (against gH-Lg/gL) in assay [1] is 6 fold. The substance further registered a percent of the interaction of WT HSV-1 gH-Lg in assay [2] of 45%.
On to “HSV-1 gB-Sm (from UniProt P06437 31-904) (natural protein)”, for which the percent of the interaction of WT HSV-1 gH-Lg/gL in assay [3] worked out at 60%; in assay [2], 54%; in assay [4], 60%.
